The text below walks through data of patent publication US20050107584A1.

Assay [1] deals with human anti-β2GPI mAb ILA-1. The experiment in a line: competition ELISA, β2GPI-coated plates, 10 µM peptide. Background: An ELISA detects its analyte on a solid surface through an enzyme-linked reagent.
Assay [2] concerns the target human anti-β2GPI mAb ILA-3. Described as above.
The target in assay [3] is human anti-β2GPI mAb ILA-3. Put plainly: cell-based or functional assay.
In assay [4] the target is human anti-β2GPI mAb ILA-3. The experiment in a line: cyto-ELISA on HUVEC coated with 10 µg/ml β2GPI, 10 µM peptide.
The target of assay [5] is human anti-β2GPI mAb G-3. Put plainly: competition ELISA, β2GPI-coated plates, 10 µM peptide.
In assay [6] the target is human anti-β2GPI mAb G-3. The experiment in a line: cell-based or functional assay.
Assay [7] has as its target human anti-β2GPI mAb G-3. Put plainly: cyto-ELISA on HUVEC coated with 10 µg/ml β2GPI, 10 µM peptide.
The target of assay [8] is human anti-β2GPI mAb ILA-1. The experiment in a line: cell-based or functional assay.
In assay [9] the target is human anti-β2GPI mAb ILA-1. Put plainly: cyto-ELISA on HUVEC coated with 10 µg/ml β2GPI, 10 µM peptide.
Assay [10] addresses human anti-β2GPI mAb ILA-1. Put plainly: competition ELISA, mAb 10 µg/ml preincubated with peptide, β2GPI-coated plates, 10 µM peptide.

On to KDKATFGTHDG [synthetic peptide B (monomer), Lys Asp Lys Ala Thr Phe Gly Thr His Asp Gly], for which, in [1], the % inhibition of ILA-1 mAb binding to β2GPI stood at 10%. This molecule also returned a % inhibition of ILA-3 mAb binding to β2GPI in assay [2] of 77%. In [3], this molecule displayed a % inhibition of adhesion of U937 monocyte cells to HUVEC of 95% and an E-selectin expression by HUVEC (ELISA O.D.) of 0.211 O.D. For the same molecule, the % inhibition of ILA-3 mAb binding to HUVEC in assay [4] is 72%.
In the case of CATLRVYKGG [synthetic peptide C (monomer), Cys Ala Thr Leu Arg Val Tyr Lys Gly Gly], the % inhibition of G-3 mAb binding to β2GPI with human anti-β2GPI mAb G-3 [5] came out at 98%. The % inhibition of ILA-1 mAb binding to β2GPI in assay [1] is 11%. In addition, in the assay with human anti-β2GPI mAb G-3 [6], the % inhibition of adhesion of U937 monocyte cells to HUVEC is 92%, the E-selectin expression by HUVEC (ELISA O.D.) amounted to 0.215 O.D, the ICAM-1 expression by HUVEC (ELISA O.D.) worked out at 0.186 O.D and the VCAM-1 expression by HUVEC (ELISA O.D.) worked out at 0.174 O.D. The % inhibition of G-3 mAb binding to HUVEC in the assay with human anti-β2GPI mAb G-3 [7] worked out at 92%.
In [8], NTLKTPRVGG [synthetic peptide A (monomer), Asn Thr Leu Lys Thr Pro Arg Val Gly Gly] came in with a % inhibition of adhesion of U937 monocyte cells to HUVEC of 84%, an E-selectin expression by HUVEC (ELISA O.D.) of 0.239 O.D, an ICAM-1 expression by HUVEC (ELISA O.D.) of 0.204 O.D and a VCAM-1 expression by HUVEC (ELISA O.D.) of 0.252 O.D. The same molecule came in with a % inhibition of ILA-1 mAb binding to HUVEC in assay [9] of 95%. In [10], this molecule returned a % inhibition of ILA-1 mAb binding to β2GPI of 97%.
